Assay results published in patent USRE47150 (Bayer, dated 2018).
Changes are numbered by the printed parent chain. Numbers in names are those of the source.

T1: human tissue factor pathway inhibitor (TFPI) (human, UniProt P10646 29-304, limits assumed)
T1 construct: bought; also called hTFPI; human TFPI
T1 sequence (looked up): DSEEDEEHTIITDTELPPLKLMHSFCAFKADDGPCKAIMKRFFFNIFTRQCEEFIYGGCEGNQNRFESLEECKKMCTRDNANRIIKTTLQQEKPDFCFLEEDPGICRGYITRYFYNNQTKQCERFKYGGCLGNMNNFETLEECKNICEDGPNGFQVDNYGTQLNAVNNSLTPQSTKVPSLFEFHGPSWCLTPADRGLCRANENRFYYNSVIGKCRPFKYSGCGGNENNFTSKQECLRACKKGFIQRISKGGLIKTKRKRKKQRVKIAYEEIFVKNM

T2: mouse tissue factor pathway inhibitor (TFPI) (mouse, UniProt O54819 29-289, limits assumed)
T2 construct: bought; also called mTFPI; murine TFPI
T2 sequence (looked up): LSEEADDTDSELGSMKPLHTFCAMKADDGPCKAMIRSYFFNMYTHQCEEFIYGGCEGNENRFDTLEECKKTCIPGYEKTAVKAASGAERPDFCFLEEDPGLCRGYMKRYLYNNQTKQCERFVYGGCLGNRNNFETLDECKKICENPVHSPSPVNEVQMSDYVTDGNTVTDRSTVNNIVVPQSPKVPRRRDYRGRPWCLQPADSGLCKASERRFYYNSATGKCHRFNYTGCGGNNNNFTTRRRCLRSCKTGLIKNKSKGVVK

B1: 2A8 HC_K99L (Fab, V domains shown)
VH: QVQLVESGGGLVQPGGSLRLSCAASGFTFRSYGMSWVRQAPGKGLEWVSSIRGSSSSTYYADSVKGRFTISRDNSKNTLYLQMNSLRAEDTAVYYCARLYRYWFDYWGQGTLVTVSS
VL: DIELTQPPSVSVAPGQTARISCSGDNLRNYYAHWYQQKPGQAPVVVIYYDNNRPSGIPERFSGSNSGNTATLTISGTQAEDEADYYCQSWDDGVPVFGGGTKLTVLG
notes: also called 2A8-9
B2: 2A8 HC_I51E (Fab, V domains shown)
VH: B1 VH with I51E, L99K
VL: B1 VL
notes: also called 2A8-6
B3: 2A8 HC_S54F (Fab, V domains shown)
VH: B1 VH with S54F, L99K
VL: B1 VL
notes: also called 2A8-7
B4: 2A8 LC_Y48F (Fab, V domains shown)
VH: B1 VH with L99K
VL: B1 VL with Y48F
notes: also called 2A8-14
B5: 2A8 HC_K99V (Fab, V domains shown)
VH: B1 VH with L99V
VL: B1 VL
notes: also called 2A8-10
B6: 2A8 HC_S35D (Fab, V domains shown)
VH: B1 VH with S35D, L99K
VL: B1 VL
notes: also called 2A8-4
B7: 2A8 HC_S31P (Fab, V domains shown)
VH: B1 VH with S31P, L99K
VL: B1 VL
notes: also called 2A8-2
B8: 2A8 LC_D91L (Fab, V domains shown)
VH: B1 VH with L99K
VL: B1 VL with D91L
notes: also called 2A8-16
B9: 2A8 LC_D91K (Fab, V domains shown)
VH: B1 VH with L99K
VL: B1 VL with D91K
notes: also called 2A8-15
B10: 2A8 LC_D91W (Fab, V domains shown)
VH: B1 VH with L99K
VL: B1 VL with D91W
notes: also called 2A8-17
B11: 2A8 HC_S31V (Fab, V domains shown)
VH: B1 VH with S31V, L99K
VL: B1 VL
notes: also called 2A8-3
B12: 2A8-g216 (HC S31V+I51D+S55R+K99V/LC D1S+I2Y+A13S+S21T+R28P+N29K+Y48F+N51S+E80M+D91L+D92S+V94T+V96W) (Fab, V domains shown)
VH: B1 VH with S31V, I51D, S55R, L99V
VL: SYELTQPPSVSVSPGQTARITCSGDNLPKYYAHWYQQKPGQAPVVVIFYDSNRPSGIPERFSGSNSGNTATLTISGTQAMDEADYYCQSWLSGTPWFGGGTKLTVLG
B13: 2A8-g200 (HC Q1E+R30S+S35D+S55R+S56G+K99L/LC D1S+I2Y+A13S+S21T+R28P+N29K+Y48F+N51V+E80M+S89A+D91W+D92S+G93S+V94T) (Fab, V domains shown)
VH: B1 VH with Q1E, R30S, S35D, S55R, S56G
VL: B12 VL with S51V, S89A, L91W, G93S, W96V
B14: 2A8-227 (HC S35D+K99L/LC Y48F+D91L+V96W) (Fab, V domains shown)
VH: B1 VH with S35D
VL: B1 VL with Y48F, D91L, V96W

The binders below were run against T3, recombinant TFPI of the FXa restoring assay (human, mouse or rat; not specified for Tables 9 and 10) (assay: cell-based or functional assay).

EC50, FXa restoring assay [pM] | Improvement vs parental 2A8, FXa restoring assay [fold] | Binder
1000 | 7.9 | B1

What follows are binders tested against T1, human tissue factor pathway inhibitor … (assay: competitive ELISA).

variant/wild-type [ratio] | Binder
7.3 | B2
6.5 | B3
4.6 | B4
7.5 | B5
4.3 | B6
3.6 | B7
13.5 | B1
4.2 | B8
3.5 | B9
7.4 | B10
9.7 | B11

What follows are binders tested against T2, mouse tissue factor pathway inhibitor … (assay: competitive ELISA).

variant/wild-type [ratio] | Binder
0.7 | B2
3.1 | B3
3.2 | B4
3.9 | B5
2.6 | B6
2.4 | B7
10.8 | B1
1.6 | B8
1.4 | B9
4 | B10
7.4 | B11

Biological target: T3, recombinant TFPI of the FXa restoring …
Assay: cell-based or functional assay
Remark: another data set of the same source

IC50, FXa restoring assay [µg/mL] | Improvement vs parental, FXa restoring assay [fold] | Binder
0.76 | 0.9 | B2
0.35 | 2 | B3
0.34 | 1.9 | B4
0.39 | 1.6 | B5
0.55 | 1.1 | B6
0.33 | 1.7 | B7
0.181 | 3.9 | B1
0.37 | 1.7 | B8
0.34 | 1.9 | B9
0.23 | 3 | B10
0.201 | 3.5 | B11

Each binder was assayed against T2, mouse tissue factor pathway inhibitor … (assay: SPR, TFPI immobilized).

KD fold improvement [fold] | Kd [pM] | koff [s⁻¹] | kon [M⁻¹ s⁻¹] | Binder
41.6 | 79.1 | 7.78e-05 | 984000 | B12
27.3 | 121 | 0.000139 | 1.15e+06 | B13
21.4 | 153 | 0.00106 | 6.91e+06 | B14

Biological target: T2, mouse tissue factor pathway inhibitor …
Assay: SPR, TFPI immobilized
Remark: another data set of the same source

Improvement [fold] | Kd [pM] | koff [s⁻¹] | kon [M⁻¹ s⁻¹] | Binder
1.69 | 2070 | 0.00183 | 884000 | B3
1.78 | 1980 | 0.00246 | 1.25e+06 | B6
1.71 | 2060 | 0.00316 | 1.53e+06 | B7
7.2 | 488 | 0.000759 | 1.56e+06 | B1
4.32 | 814 | 0.00232 | 2.86e+06 | B10
5.91 | 595 | 0.00202 | 3.39e+06 | B11

These binders were tested against T1, human tissue factor pathway inhibitor … (assay: SPR, TFPI immobilized).

Improvement [fold] | Kd [pM] | koff [s⁻¹] | kon [M⁻¹ s⁻¹] | Binder
1.78 | 1260 | 0.00162 | 1.29e+06 | B2
3.08 | 727 | 0.00204 | 2.81e+06 | B3
1.97 | 1140 | 0.003 | 2.64e+06 | B4
2.25 | 995 | 0.00254 | 2.55e+06 | B5
2.35 | 950 | 0.0038 | 4.01e+06 | B6
1.95 | 1150 | 0.00333 | 2.91e+06 | B7
7.22 | 309 | 0.000803 | 2.6e+06 | B1
2.24 | 999 | 0.0044 | 4.41e+06 | B8
4.64 | 482 | 0.00209 | 4.33e+06 | B9
2 | 1120 | 0.00432 | 3.86e+06 | B10
6 | 373 | 0.00143 | 3.84e+06 | B11

Biological target: T1, human tissue factor pathway inhibitor …
Assay: competitive ELISA
Remark: another data set of the same source

variant/HC_K99L [ratio] | Binder
19.6 | B12
18.3 | B13
18.8 | B14

Biological target: T2, mouse tissue factor pathway inhibitor …
Assay: competitive ELISA
Remark: another data set of the same source

variant/HC_K99L [ratio] | Binder
21.4 | B12
13.3 | B13
18.2 | B14

Biological target: T1, human tissue factor pathway inhibitor …
Assay: SPR, TFPI immobilized
Remark: another data set of the same source

KD fold improvement [fold] | Kd [pM] | koff [s⁻¹] | kon [M⁻¹ s⁻¹] | Binder
50.7 | 36.5 | 5.29e-05 | 1.45e+06 | B12
31.7 | 58.4 | 3.61e-05 | 617000 | B13
49.4 | 37.5 | 0.000123 | 3.28e+06 | B14
